Data: article doi:10.1101/2020.05.05.078782

Target: BD1 bromodomain construct (residues 44-168) of human Brd4 (human) (UniProt O60885)
Assay: SPR

“YFV-C (residues 1-11) peptide acetylated at lysine 8” showed a Kd of 540 µM.

“YFV-C (residues 1-11) peptide acetylated at lysine 4” gave a Kd of 362 µM.
